How the values were obtained:
[1] = set-up: species or system Swiss-Webster mice; settings: mouse, in vivo
Method: The PK of FGF21 antibody conjugates were examined in mice after IV or SC administration. […] Antibody conjugates concentrations in serum were determined using an ELISA which captured the FGF21 portion of the antibody conjugates through a monoclonal anti-hFGF21 antibody bound to a 96-well plate. FGF21 antibody conjugates bound to the plate were detected through an anti-hFc monoclonal antibody, and concentrations were determined using a standard curve of the PK dosing solution diluted into serum-containing assay buffer. SC bioavailability was calculated as the ratio of the area-under the curve (AUC) of the SC serum concentration profile divided by the AUC of the IV serum concentration profile.

[2] = tested on: obese insulin resistant (pre-diabetic) cynomolgus macaques; format: in vivo, Macaca fascicularis; settings: 0.3 mg/kg QD
Method: […] adult cynomolgus monkeys (Macaca fascicularis) were included in the study. The monkeys (13 male, 11 female) were stratified into four treatment groups of 6 individuals, based on sex, body weight, and basal glycemic and lipid indices measured in a baseline plasma sample collected 2 weeks prior to the start of dosing. Animals were maintained on a high fat diet. Animals were dosed for 4 weeks followed by a 4 week washout period.
Blood samples were collected weekly during the dosing and washout periods, with the exception that no samples were collected at week 3 of washout. After an overnight fast (16-18 h), monkeys were sedated with ketamine 10-15 mg/kg by intramuscular (IM) injection. Body weights were recorded and blood (5 mL) was collected via percutaneous femoral venipuncture into ethylenediaminetetraacetic acid (EDTA) treated Vacutainer tubes pretreated with ˜1.8 trypsin inhibitor units (TIU) Aprotinin (Sigma 0.6 TIU per mL whole blood). Tubes were immediately placed on ice. Plasma was prepared by centrifugation, with the resulting plasma aliquoted and frozen at −80° C.
Data were treated in the same way for each pharmacodynamic endpoint. The baseline value for each individual monkey was subtracted from each timepoint to give a value corresponding to change from baseline. Changes from baseline values were averaged for each timepoint in each treatment group and standard error of the mean (SEM) calculated. Results are reported as mean change from baseline±SEM for each treatment group over the timecourse of the study. […] As there was no vehicle control group for the FGF21ΔH treated animals, the raw data and not the change from baseline value was used to assess statistical significance. In this case a student's T-test (two sided, paired sample) was carried out vs. baseline. […]
Plasma fructosamine was measured via an enzymatic colorimetric method using the Ace Alera Clinical Chemistry Analyzer using a kit from Roche Diagnostics®(Mannheim, Germany) according to manufacturer's instructions. […] Significant reduction in plasma fructosamine levels over time indicates improved glycemic control. […]
TPC levels were measured using enzymatic methods on the Ace Alera analyzer. There was a significant decrease in TPC after 1 week of treatment in all treatment groups (FIG. 9H).
TG levels were measured using enzymatic methods on the Ace Alera analyzer.
Non-esterified free fatty acids (FFA) were measured using enzymatic methods on a Roche Cobas® C311 clinical chemistry analyzer using protocols and reagents from Wako® (Wako Diagnostics, Richmond, Va.) according to manufacturer's instructions.
HDL levels were measured using enzymatic methods on the Ace Alera analyzer. There was no significant change in HDL cholesterol over the treatment period in any of the treatment groups.
LDL levels were measured using enzymatic methods on the Ace Alera analyzer.
TOTK were measured using enzymatic methods on a Roche Cobas® C311 clinical chemistry analyzer using protocols and reagents from Wako®.
Adiponectin levels were determined using a Mercodia® ELISA kit.
C-reactive protein (CRP) was measured using an ELISA kit from ALPCO Diagnostics® (Salem, N.H.) according to manufacturer's instructions. […] Levels trended back to baseline during the washout phase.
Leptin was measured by Luminex® technology (Millipore® catalogue number HMH-34K) with protocols and reagents according to manufacturer's instructions.
Adipsin levels were measured using and R&D Systems® (Minneapolis Minn.) human complement factor D Quantikine kit (catalogue number DFD00) according to manufacturer's instructions. […] The levels trended back towards baseline during the washout phase.

ob/ob mice = test: Mouse efficacy in ob/ob mice (OGTT, body weight, liver, gene expression); format: in vivo
Method: (§1) The efficacy of FGF21 antibodies conjugates was evaluated in two murine obese insulin resistant models—ob/ob mice and high-fat diet-induced obese mice. For both models, male mice (6-8 weeks of age for ob/ob, 12-14 weeks of age for DIO with high-fat diet initiated at 6 weeks of age) were housed 2-4/cage and FGF21 antibody conjugates were administered by SC injection. Body weight was measured daily in the morning. Glucose tolerance was assessed by oral glucose tolerance test. Briefly, mice were fasted for 4-5 hrs in the morning of the day of testing. A basal blood sample was obtained and blood glucose levels were determined using a portable glucometer. Following basal sample, glucose was administered by oral gavage, and blood samples were drawn from 15 to 120 mins thereafter.
(§2) For […] expression, frozen visceral WAT samples collected from the in vivo efficacy studies were homogenized. Total RNA was extracted from the tissue homogenates, and Glut1 and GAPDH mRNA expression was measured using a Quantitect Probe RT-PCR kit and running a quantitative real time PCR reaction in a Taqman machine (Applied Biosystems). The effect of treatment was determined by a fold change in Glut1 mRNA levels normalized by the GAPDH mRNA levels from each sample.

[3] = tested on: Differentiated 3T3-L1 adipocytes; test: Glucose uptake assay; format: cell-based; settings: unconjugated protein; n in brackets
Method: Differentiated 3T3-L1 adipocytes were treated with compounds in the absence of serum for 24 hrs. Cells were then incubated with ^14C-2-deoxyglucose for 1 hr and glucose uptake into the cells was quantitated in Wallac 1450 MicroBeta (Trilux) instrument. Glucose uptake was expressed in counts per min (CPM). EC50 values as measurements of the potency of the compounds were obtained from the dose response curves in the assay.

DIO mice = test: Mouse efficacy in high-fat diet-induced obese (DIO) mice; format: in vivo; settings: day 10, 1 mg/kg QD
Method: as §1, §2

[4] = ob/ob mice liver, day 6, qPCR, 1 mg/kg QD

B1: FGF21ΔH: FGF21 with H1 absent (ΔH1), L146, SEQ ID NO:2; control protein (protein, listed as Homo sapiens)
chain: PIPDSSPLLQFGGQVRQRYLYTDDAQQTEAHLEIREDGTVGGAADQSPESLLQLKALKPGVIQILGVKTSRFLCQRPDGALYGSLHFDPEACSFRELLLEDGYNVYQSEAHGLPLHLPGNKSPHRDPAPRGPARFLPLPGLPPAPLEPPGILAPQPPDVGSSDPLSMVGPSQGRSPSYAS
- IV T1/2 ([1]; iv): 24 min
- % SC BioAv ([1]; sc): 96%
- SC T1/2 ([1]; sc): 30 min
- LDL cholesterol [2]: significant decrease in LDL cholesterol levels was only observed after 1 week of treatment
- non-esterified free fatty acids (FFA) [2]: significantly increased over the first 2 weeks of treatment
- plasma adiponectin [2]: trended upwards
- body weight ([2]; 4 weeks, vs baseline): significant decrease in body weight
- plasma fructosamine ([2]; after 3 weeks): significantly reduced
- triglycerides (TG) ([2]; dosing period): significant decrease in TG
- total ketone bodies (TOTK) ([2]; first 3 weeks of treatment): significantly increased
- plasma leptin ([2]; not significant): decreased
- plasma C-reactive protein (CRP) ([2]; significance only at 1 week washout): decreased
- GTT* (% AUC of Ctrl) (ob/ob mice; 1 mg/kg Qd (FGF21dH protein)): 67 % AUC of Ctrl
- Mean fold changes of mRNA expression, FoxA2 (ob/ob mice; [4]): 1.23 fold
- Mean fold changes of mRNA expression, MOGAT2 (ob/ob mice; [4]): 0.37 fold
- Mean fold changes of mRNA expression, SCD1 (ob/ob mice; [4]): 0.95 fold
- Mean Glucose AUC (% of vehicle control) (ob/ob mice; ob/ob mice, OGTT day 6, 1 mg/kg QD): 61 % of vehicle control
- Body weight change from day −1 (ob/ob mice; ob/ob mice, day 6, 1 mg/kg QD): 4.7
- Glucose AUC during OGTT (ob/ob mice; ob/ob mice, day 6, 1 mg/kg QD): 67
- Liver Weight (ob/ob mice; ob/ob mice, day 6, 1 mg/kg QD): 1.8 g
- Triglycerides content in liver (ob/ob mice; ob/ob mice, day 6, 1 mg/kg QD): 37.0
- UCP1 mRNA expression in WAT (ob/ob mice; ob/ob mice, day 6, 1 mg/kg QD): 2.6
- Mean Glucose AUC (% of vehicle control) during OGTT (ob/ob mice; ob/ob mice, single SC dose 0.6 mg/kg (FIG. 4A)): 103 % of vehicle control
- Cumulative body weight change, mean body weight (ob/ob mice; ob/ob mice, single SC dose 0.6 mg/kg (FIG. 5A)): 3.2 g
- mean liver weight (ob/ob mice; ob/ob mice, single SC dose 0.6 mg/kg (FIG. 5B)): 2.4 g
- Cumulative body weight change, mean body weight (ob/ob mice; ob/ob mice, single SC dose 1 mg/kg (FIG. 5A)): 2.5 g
- mean liver weight (ob/ob mice; ob/ob mice, single SC dose 1 mg/kg (FIG. 5B)): 2.2 g
- Mean Glucose AUC (% of vehicle control) during OGTT (ob/ob mice; ob/ob mice, single SC dose 1 mg/kg (FIGS. 4A, 4B)): 74 % of vehicle control
- Cumulative body weight change, mean body weight (ob/ob mice; ob/ob mice, single dose, dose not printed (FIG. 6A)): 1.9 g
- mean glucose AUC % during OGTT (ob/ob mice; ob/ob mice, single dose, dose not printed (FIG. 6B)): 63%
- EC50 [3]: 12 nM
- Body weight change from day −1 (DIO mice): −1.6
- Glucose AUC during OGTT (DIO mice): 75
- Mean values of serum lipids NEFA (DIO mice): 0.40 mM
- Mean values of serum lipids TG (DIO mice): 92 mg/dL
- UCP1 mRNA expression in WAT (DIO mice): 1.38

Source: US8722622B2, “FGF21 conjugates and anti-diabetic uses thereof” (COVX Technologies Ireland, Limited, priority 2010, dated 2014)
